Assay results: patent publication US20240124917, “COMPOSITIONS AND METHODS FOR NUCLEIC ACID DETECTION BY LATERAL FLOW ASSAYS” (King Abdullah University of Science and Technology, published 2024)

B1: virD2 reporter-B-L (ssDNA)
DNA: GTTTACCCGCCAATATATCCTGTCATTTTTTTTTT
B2: pstv-cnt-RB-ssDNA (ssDNA)
DNA: CAGATCAATTCTCTTAGGTTTACCCGCCAATATATCCTGTCAAACACTGATAGTTTTCACAGTAGGGTG

Columns and labels:
[1] = molecular target: T1, Cas9-VirD2 fusion (wild-type SpCas9 to wild-type VirD2) (Streptococcus pyogenes / Agrobacterium …, UniProt Q99ZW2;P06668 Q99ZW2:1-1368,P06668:1-424); test: covalent binding, anti-biotin western; 10 mM MgCl2, 37 C; conditions: tags: SpCas9-VirD2 fusion, expressed in E. coli BL21(DE3); label: 3' biotin
VirD2-dCas9 fusion [2] = molecular target: T2, VirD2-dCas9 fusion (/ Streptococcus pyogenes, UniProt Q99ZW2 SEQ:46-492+510-1877); test: as above; conditions: label: 3' biotin
[3] = molecular target: T3, VirD2-Cas9 fusion (wild-type VirD2 to wild-type SpCas9) (/ Streptococcus pyogenes, UniProt P06668;Q99ZW2 P06668:1-424,Q99ZW2:1-1368); test: as above; conditions: tags: VirD2-SpCas9 fusion, expressed in E. coli BL21(DE3); label: 3' biotin
dCas9-VirD2 fusion [4] = molecular target: T4, dCas9-VirD2 fusion (Streptococcus pyogenes / Agrobacterium …, UniProt Q99ZW2 SEQ:46-1413+1453-1899); test: as above; conditions: label: 3' biotin
[5] = molecular target: T5, dCas9-dVirD2 fusion (dead Cas9, dead VirD2) (Streptococcus pyogenes / Agrobacterium …, UniProt Q99ZW2 SEQ:46-1413+1453-1899); test: negative control, dead VirD2; anti-biotin western; conditions: label: 3' biotin
[6] = molecular target: T5, dCas9-dVirD2 fusion (dead Cas9, dead …); test: EMSA; dead VirD2 does not bind RB probe
[7] = molecular target: T1, Cas9-VirD2 fusion (wild-type SpCas9 to …); test: EMSA; different shift pattern; 250 nM each, 10 mM MgCl2; conditions: tags: SpCas9-VirD2 fusion, expressed in E. coli BL21(DE3)
VirD2-dCas9 fusion [8] = molecular target: T2, VirD2-dCas9 fusion; test: EMSA; denaturing gel mobility shift; 10 mM MgCl2
dCas9-VirD2 fusion [9] = molecular target: T4, dCas9-VirD2 fusion; test: EMSA; denaturing gel mobility shift; 10 mM MgCl2
[10] = molecular target: T3, VirD2-Cas9 fusion (wild-type VirD2 to …); test: EMSA; denaturing gel mobility shift, Coomassie; 250 nM each, 10 mM MgCl2; conditions: tags: VirD2-SpCas9 fusion, expressed in E. coli BL21(DE3)

| Binder | binding result [1] | binding result (VirD2-dCas9 fusion [2]) | binding result [3] | binding result (dCas9-VirD2 fusion [4]) | binding result [5] | binding result [6] | binding result [7] | binding result (VirD2-dCas9 fusion [8]) | binding result (dCas9-VirD2 fusion [9]) | binding result [10] |
| --- | --- | --- | --- | --- | --- | --- | --- | --- | --- | --- |
| B1 | binds | binds | binds | binds | no binding | – | – | – | – | – |
| B2 | – | – | – | – | – | no binding | binds | binds | binds | binds |
